Measured values taken from patent US12083134B2, “Anacardic acid for neural repair” (Vanderbilt University, priority 2018, dated 2024).

Assays:
OPCs = test: Maturation of OPCs cultured with IL-33 (O4 and MBP expressing cells); type: cell-based, rat
Excerpt: The graphs to the right show the quantitation of O4 and MBP.
The formation of CNS myelin is dependent on the differentiation and maturation of OPCs. The process of maturation is well recognized both in vitro and in vivo. Immature OPCs express the receptor for platelet derived growth factor (PDGFR) and also express proteins that are recognized by antibody A2B5, anti O4, and anti Olig2 antibodies. As oligodendrocytes mature they lose their reactivity to A2B5, PDGFR, and Olig 2 and they begin to express myelin proteins including MBP. The degree of maturation can be assessed by determining the percentage of cells expressing early lineage markers such as O4 and the later markers such as MBP. The expression of O4 and MBP in OPCs cultured for 4 and 14 days in the presence or absence of IL-33 was determined. […] The increase seen with IL-33 was similar to that seen with AA.

[1] = tested on: dorsal root ganglia-OPC co-cultures; test: In vitro myelination of axons in dorsal root ganglia-OPC co-cultures with IL-33; type: cell-based; settings: DRG-OPC co-cultures, rat rIL-33 10 ng/ml, 16 days
Method: FIG. 9 provides images showing the myelination of dorsal root ganglion axons. The arrows point to the longer segments of myelinated internodes in cultures with added IL-33 (20×).
In preliminary studies, in vitro myelination of axons in the presence of IL-33 using dorsal root ganglia-OPC co-cultures was examined. Dorsal root ganglions (DRGs) were dissected from postnatal day 2 (P2) rat pups and cultured by established methods. Once the OPCs attached to the plates, they were treated with rat rIL-33 (10 ng/ml) for 16 days. At the end of the experiment, cells were stained with tubulin β for axons and MBP for myelin forming oligodendrocytes. Quantitation of myelin in axons was done using image analysis and the amount of myelin around the axons was determined. […] When compared to vehicle treated controls, there was an 18% increase in MBP in cultures treated with IL-33.

MBP in OPCs = test: Western blot of MBP expression in OPC cultures treated with IL-33; type: cell-based, rat; settings: OPCs treated with IL-33
Excerpt: (§1) FIG. 7A provides Western blot analysis of MPB expression in OPC cultures treated with IL-33. FIG. 7B provides qRT-PCR analysis showing the gene expression of transcription elements that bind to the MPB promoter region and major myelin genes treated with IL-33. T3 is the thyroid hormone internal positive control.
(§2) The importance of IL-33 as an inducer of a number of myelin genes has been shown. […] The expression of MBP, myelin oligodendrocyte glycoprotein (Mog), and proteolipoprotien (Plp) along with mRNAs of Purα, Sox10, and Sp-1 in OPCs cultured with IL-33 was quantified. Purα, Sox10, and Sp-1 are transcription elements that bind to the promoter region of MBP to initiate MBP gene expression.

[2] = tested on: MBP, Mog, Plp, Purα, Sox10, Sp-1 in OPCs; test: qRT-PCR of myelin genes and MBP promoter transcription elements in OPCs cultured with IL-33; type: cell-based, rat
Excerpt: as §1, §2

B1: IL-33: recombinant cytokine IL-33 (rat rIL-33) added exogenously to OPC cultures (protein, UniProt Q66H70 1-264, looked up)
Interleukin-33: MRPRMKYSNSKISPAKCDSTSGRALVPPCKITRSQQKTKDICHVYCMRLRSGLTIRKETCYFGKEPAKRYSLKSGSKHEGRLSTCLPDSRKRSLLGSIQAFAASVDTLSIQGTSLLTESCALSTYNDQSVSFVLENGCYVINVEDCGKNQEKDKVLLRYYESSFPAQSGDGVDGKKLMVNMSPIKDTDIWLNANDKDYSVELQKGDVSPPDQAFFVLHKKSSDFVSFECKNLPGTYIGVKDNQLALVEENDESCNNIMFKLSKM
In the case of B1, the “increase in O4 expressing cells vs normal growth medium” value (OPCs; OPCs cultured with IL-33, 4 days) is reported as 2.3 fold, the “formation of mature oligodendrocytes expressing MBP” value (OPCs; OPCs cultured with IL-33, 14 days) is reported as “increased formation of mature oligodendrocytes” and the “increase in MBP vs vehicle treated controls” value [1] is reported as 18%. For the same molecule, the “induction of MBP” value (MBP in OPCs) was 26%, the “induced expression of MBP” value [2] was 4.5 fold and the “induced expression of Mog” value [2] was 3.8 fold. The “induced expression of PLP” value [2] was 2.3 fold, the “induced expression of Purα” value [2] was 2.1 fold and the “induced expression of Sox10” value [2] was 3.9 fold. The “induced expression of Sp1” value [2] was 2.2 fold.
